Measured values as given in patent publication US20240116985A1 (published 2024).
Starred links: 1 amine or outer side, 2 acyl side, 3 side chain; linkers in the order of their positions; H or OH if unused. Positions of bridges follow the written chain, without caps; N, C: chain ends. Non-standard residues stand in square brackets, D forms with d. Primed or numbered codes have the meaning given here. PyrS2″ = (S)-3-amino-1-((pent-4-en-1-yloxy)carbonyl)pyrrolidine-3-carboxylic acid (stapling residue), C=CCCCOC(=O)N1CC[C@@](N[*:1])(C(=O)[*:2])C1; PyrS2 = (S)-3-amino-1-((pent-4-en-1-yloxy)carbonyl)pyrrolidine-3-carboxylic acid, C=CCCCOC(=O)N1CC[C@@](N[*:1])(C(=O)[*:2])C1; B5(3) = 2,2-bis(4-pentenyl)glycine (stitching residue), C=CCCCC(CCCC=C)(N[*:1])C(=O)[*:2]; B5 = 2-amino-2-(pent-4-en-1-yl)hept-6-enoic acid, C=CCCCC(CCCC=C)(N[*:1])C(=O)[*:2]; Ala(4-thiazolyl) = N[C@@H](Cc1cscn1)C(=O)O; Phe(2-Cl) = N[C@@H](Cc1ccccc1Cl)C(=O)O; Phe(2-OMe) = COc1ccccc1C[C@H](N)C(=O)O; Phe(2-F) = N[C@@H](Cc1ccccc1F)C(=O)O; Bta = N[C@@H](Cc1csc2ccccc12)C(=O)O; αAllylPro = C=CC[C@@]1(C(=O)O)CCCN1; tBuAla = CC(C)(C)C[C@H](N)C(=O)O; 3Thi = N[C@@H](Cc1ccsc1)C(=O)O; Cha = N[C@@H](CC1CCCCC1)C(=O)O; Cit = NC(=O)NCCC[C@H](N)C(=O)O; S8 = C=CCCCCCC[C@](C)(N)C(=O)O; hSer = N[C@@H](CCO)C(=O)O

T1: B-cat-Halo (beta-catenin HaloTag construct expressed in HEK293 cells) (UniProt P35222 1-781)
T1 sequence (looked up): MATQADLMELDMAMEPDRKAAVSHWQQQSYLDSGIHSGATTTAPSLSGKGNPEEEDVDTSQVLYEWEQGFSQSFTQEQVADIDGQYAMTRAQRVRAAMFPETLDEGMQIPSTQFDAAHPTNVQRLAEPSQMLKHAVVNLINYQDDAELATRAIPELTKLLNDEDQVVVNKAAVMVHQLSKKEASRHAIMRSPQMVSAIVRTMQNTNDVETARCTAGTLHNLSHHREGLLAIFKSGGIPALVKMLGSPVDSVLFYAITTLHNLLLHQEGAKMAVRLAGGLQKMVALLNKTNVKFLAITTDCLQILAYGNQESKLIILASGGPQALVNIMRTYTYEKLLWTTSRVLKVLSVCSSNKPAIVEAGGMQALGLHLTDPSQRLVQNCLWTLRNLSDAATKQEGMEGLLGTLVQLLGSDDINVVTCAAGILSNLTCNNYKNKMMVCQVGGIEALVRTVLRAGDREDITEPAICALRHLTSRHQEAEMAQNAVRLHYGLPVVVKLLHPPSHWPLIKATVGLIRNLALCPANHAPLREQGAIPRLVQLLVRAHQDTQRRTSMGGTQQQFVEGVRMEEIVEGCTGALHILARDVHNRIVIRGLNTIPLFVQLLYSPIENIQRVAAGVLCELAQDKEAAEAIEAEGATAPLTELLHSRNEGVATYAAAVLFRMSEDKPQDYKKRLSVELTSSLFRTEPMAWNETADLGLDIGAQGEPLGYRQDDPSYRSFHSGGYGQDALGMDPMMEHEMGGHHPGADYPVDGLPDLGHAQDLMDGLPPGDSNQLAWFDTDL

T2: B-cat-Halo (beta-catenin HaloTag fusion construct expressed in HEK293 cells) (UniProt P35222 1-781)
T2 sequence (looked up): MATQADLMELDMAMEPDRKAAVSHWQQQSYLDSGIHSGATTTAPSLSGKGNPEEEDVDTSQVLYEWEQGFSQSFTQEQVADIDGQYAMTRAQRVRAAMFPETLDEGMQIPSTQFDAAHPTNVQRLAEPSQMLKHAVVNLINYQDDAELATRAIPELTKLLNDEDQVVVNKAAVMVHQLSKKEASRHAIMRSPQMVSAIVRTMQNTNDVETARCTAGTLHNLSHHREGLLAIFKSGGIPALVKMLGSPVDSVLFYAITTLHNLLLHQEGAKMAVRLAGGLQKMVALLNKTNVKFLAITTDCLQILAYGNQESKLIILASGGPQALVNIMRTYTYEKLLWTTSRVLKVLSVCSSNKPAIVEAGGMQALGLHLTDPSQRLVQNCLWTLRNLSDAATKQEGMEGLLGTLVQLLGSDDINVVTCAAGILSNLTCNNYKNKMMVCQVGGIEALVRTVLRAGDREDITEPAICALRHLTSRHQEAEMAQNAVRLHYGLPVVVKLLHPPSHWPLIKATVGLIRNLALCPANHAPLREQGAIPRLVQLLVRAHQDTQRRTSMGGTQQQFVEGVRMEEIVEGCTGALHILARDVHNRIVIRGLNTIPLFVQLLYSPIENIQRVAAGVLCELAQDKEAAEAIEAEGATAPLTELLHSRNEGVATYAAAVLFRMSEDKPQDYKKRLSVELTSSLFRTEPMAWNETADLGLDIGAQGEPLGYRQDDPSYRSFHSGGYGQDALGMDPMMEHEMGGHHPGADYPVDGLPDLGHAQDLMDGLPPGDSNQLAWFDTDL


These binders were tested against T1, B-cat-Halo (beta-catenin HaloTag …) (assay: cell-based or functional assay).

| Binder | NanoBRET Abs IC50 [µM] |
| --- | --- |
| Ac-[αAllylPro]D[tBuAla][B5(3)]DDAAFN[PyrS2″][Ala(4-thiazolyl)][Bta]Q-NH2 (staple 1-4, 4-11) [I-811] | > 20 |
| Ac-[αAllylPro]D[tBuAla][B5(3)]DDAAFF[PyrS2″][3Thi][Bta]Q-NH2 (staple 1-4, 4-11) [I-807] | 3.2 |
| Ac-[αAllylPro]D[tBuAla][B5(3)]DDAAFT[PyrS2″][3Thi][Bta]H-NH2 (staple 1-4, 4-11) [I-810] | 18 |
| Ac-[αAllylPro]D[tBuAla][B5]DDAAFL[PyrS2][3Thi][Bta]H-NH2 (staple 1-4, 4-11) [I-802] | 4.8 |
| Ac-[αAllylPro]D[tBuAla][B5(3)]DDAAF[hSer][PyrS2″][3Thi][Bta]H-NH2 (staple 1-4, 4-11) [I-804] | 13.5 |
| Ac-[αAllylPro]D[tBuAla][B5(3)]DDAAFF[PyrS2″][3Thi][Bta]H-NH2 (staple 1-4, 4-11) [I-808] | 4.4 |

Now from value to binder:

| NanoBRET Abs IC50 [µM] | Binder |
| --- | --- |
| 20.9 | Ac-[αAllylPro]D[tBuAla][B5]DDAAFN[PyrS2″][3Thi][Bta][dH]-NH2 (staple 1-4, 4-11) [I-813] |
| 48.6 | Ac-[αAllylPro]D[tBuAla][B5(3)]DDAA[Ala(4-thiazolyl)]N[PyrS2″][3Thi][Bta]Q-NH2 (staple 1-4, 4-11) [I-812] |
| 21.6 | Ac-[αAllylPro]D[tBuAla][B5(3)]DDAAF[Cit][PyrS2″][3Thi][Bta]H-NH2 (staple 1-4, 4-11) [I-806] |
| 18.5 | Ac-[αAllylPro]D[tBuAla][B5(3)]DDAAF[Cit][PyrS2″][3Thi][Bta]Q-NH2 (staple 1-4, 4-11) [I-805] |

The binders below were run against T2, B-cat-Halo (beta-catenin HaloTag fusion …) (assay: cell-based or functional assay).

| Binder | NanoBRET Abs IC50 [µM] |
| --- | --- |
| Ac-[αAllylPro]D[tBuAla][B5(3)]DEAAFL[S8][Phe(2-Cl)][Bta]Q-NH2 (staple 1-4, 4-11) [I-1096] | 8.6 |
| Ac-[αAllylPro]D[Cha][B5(3)]DDAAFS[PyrS2″][Phe(2-F)][Bta]S-NH2 (staple 1-4, 4-11) [I-1102] | 27.2 |
| Ac-[αAllylPro]D[Cha][B5(3)]DDAAFS[PyrS2″]F[Bta]S-NH2 (staple 1-4, 4-11) [I-1100] | 24.3 |
| Ac-[αAllylPro]D[tBuAla][B5(3)]DDAAFL[S8][Phe(2-Cl)][Bta]Q-NH2 (staple 1-4, 4-11) [I-1095] | > 20 |
| Ac-[αAllylPro]D[tBuAla][B5(3)]DDAAFS[PyrS2″]F[Bta]S-NH2 (staple 1-4, 4-11) [I-1099] | 9 |

Further lines, results first:

| NanoBRET Abs IC50 [µM] | Binder |
| --- | --- |
| 27 | Ac-[αAllylPro]D[tBuAla][B5(3)]DDAAFS[PyrS2″][Phe(2-F)][Bta]S-NH2 (staple 1-4, 4-11) [I-1101] |
| 16.7 | Ac-[αAllylPro]D[tBuAla][B5(3)]DDAAFS[PyrS2″][Phe(2-OMe)][Bta]S-NH2 (staple 1-4, 4-11) [I-1103] |
| > 20 | Ac-[αAllylPro]D[tBuAla][B5(3)]DDAAFL[S8][Phe(2-Cl)][Bta][dT]-NH2 (staple 1-4, 4-11) [I-1097] |
